Patent EP4138793B1, “NOVEL NON-PROTEINIC FURIN INHIBITOR” (priority 2020, dated 2021)
The star is where a group is joined. Decanoyl = CCCCCCCCCC(=O)*; CH2Cl = ClC*

Target: furine humaine recombinante (Homo sapiens, UniProt P09958)
Assay: Inhibition of furin enzyme activity (cleavage of a fluorescent substrate)
Type: biochemical
Details: reference inhibitor tested at 100 nm
Description: L'expérience est réalisée en utilisant une furine humaine recombinante, qui catalyse le clivage d'un substrat spécifique fluorescent.
Le décanoyl-Arg-Val-Lys-Arg-CMK à 100 nm a été utilisé comme inhibiteur de référence de l'activité de la furine.
La furine est pré-incubée pendant 10 minutes à température ambiante en l'absence (contrôle) ou en présence du produit de référence ou de concentrations croissantes du composé testé : «Amyrines purifiées de Protium heptaphyllum»; 25 ppm; 250 ppm et 1000 ppm (v / v). Le produit «Amyrines purifiées de Protium heptaphyllum» , AMY à 1000 PPM correspond à une solution 0,5% en volume du produit HTRE commercialisé par la société Ephyla.
À la fin de l'étape de pré-incubation, un substrat de furine a été ajouté et les conditions expérimentales ont été incubées à nouveau à température ambiante à l'abri de la lumière pendant 5 minutes. Toutes les expériences ont été réalisées en triplicate.
Le composé d'essai " Amyrines purifiées de Protium heptaphyllum " pré-solubilisé à 10 000 ppm dans du DMSO. La solution a ensuite été diluée dans du tampon d'essai afin d'atteindre les concentrations décrite ci-dessus.
Le clivage du substrat fluorescent de furine a été suivi pendant 5 minutes après l'addition du substrat en lisant la fluorescence à 485 nm / 535 nm.
Les résultats sont exprimés en RFU (unités fluorescentes relatives) +/- S.D. (Écart-type).

furine humaine recombinante, sequence (P09958 108-794): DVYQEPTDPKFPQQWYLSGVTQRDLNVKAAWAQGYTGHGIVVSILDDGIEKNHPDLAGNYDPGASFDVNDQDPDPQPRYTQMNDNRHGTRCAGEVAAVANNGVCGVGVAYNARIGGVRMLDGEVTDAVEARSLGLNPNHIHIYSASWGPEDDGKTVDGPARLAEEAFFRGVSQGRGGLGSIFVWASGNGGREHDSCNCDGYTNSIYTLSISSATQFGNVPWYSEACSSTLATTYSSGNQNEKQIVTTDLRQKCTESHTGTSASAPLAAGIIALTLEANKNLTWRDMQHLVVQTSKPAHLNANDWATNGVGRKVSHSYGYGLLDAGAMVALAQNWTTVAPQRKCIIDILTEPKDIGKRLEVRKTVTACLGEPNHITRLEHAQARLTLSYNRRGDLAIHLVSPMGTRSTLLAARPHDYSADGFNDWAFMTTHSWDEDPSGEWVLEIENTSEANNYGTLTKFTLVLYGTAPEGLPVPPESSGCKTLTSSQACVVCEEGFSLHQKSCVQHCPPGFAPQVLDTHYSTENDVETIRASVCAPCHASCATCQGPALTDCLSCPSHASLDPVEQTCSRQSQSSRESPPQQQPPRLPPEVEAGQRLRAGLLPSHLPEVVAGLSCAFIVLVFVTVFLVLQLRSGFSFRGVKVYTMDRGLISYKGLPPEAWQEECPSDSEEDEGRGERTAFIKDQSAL

Decanoyl-Arg-Val-Lys-Arg-CMK (Decanoyl-RVKR-CH2Cl)
inhibition de l'activité de la furine: 97,9%
